Measurements published in article PMC5715081, “Purification and functional comparison of nine human Aquaporins produced in Saccharomyces cerevisiae for the purpose of biophysical characterization” (Scientific Reports, 2017).

B1: human AQP6-TEV-GFP-His10 fusion (natural protein, UniProt Q13520 1-282, looked up)
chain: MDAVEPGGRGWASMLACRLWKAISRALFAEFLATGLYVFFGVGSVMRWPTALPSVLQIAITFNLVTAMAVQVTWKASGAHANPAVTLAFLVGSHISLPRAVAYVAAQLVGATVGAALLYGVMPGDIRETLGINVVRNSVSTGQAVAVELLLTLQLVLCVFASTDSRQTSGSPATMIGISVALGHLIGIHFTGCSMNPARSFGPAIIIGKFTVHWVFWVGPLMGALLASLIYNFVLFPDTKTLAQRLAILTGTVEVGTGAGAGAEPLKKESQPGSGAVEMESV
notes: Aquaporin 6, human, cDNA codon optimized for S. cerevisiae; primers run from the start codon to the last codon; also called AQP6-GFP; Aquaporin 6; not shown: TEV cleavage site, C-terminal, kept; yeGFP, C-terminal, kept; His10, C-terminal, kept
B2: human AQP9-TEV-GFP-His10 fusion (natural protein, UniProt O43315 1-295, looked up)
chain: MQPEGAEKGKSFKQRLVLKSSLAKETLSEFLGTFILIVLGCGCVAQAILSRGRFGGVITINVGFSMAVAMAIYVAGGVSGGHINPAVSLAMCLFGRMKWFKLPFYVGAQFLGAFVGAATVFGIYYDGLMSFAGGKLLIVGENATAHIFATYPAPYLSLANAFADQVVATMILLIIVFAIFDSRNLGAPRGLEPIAIGLLIIVIASSLGLNSGCAMNPARDLSPRLFTALAGWGFEVFRAGNNFWWIPVVGPLVGAVIGGLIYVLVIEIHHPEPDSVFKTEQSEDKPEKYELSVIM
notes: Aquaporin 9, human, cDNA codon optimized for S. cerevisiae; primers run from the start codon to the last codon; also called AQP9-GFP; Aquaporin 9; not shown: TEV cleavage site, C-terminal, kept; yeGFP, C-terminal, kept; His10, C-terminal, kept
B3: human AQP2-TEV-GFP-His10 fusion (natural protein, UniProt P41181 1-271, looked up)
chain: MWELRSIAFSRAVFAEFLATLLFVFFGLGSALNWPQALPSVLQIAMAFGLGIGTLVQALGHISGAHINPAVTVACLVGCHVSVLRAAFYVAAQLLGAVAGAALLHEITPADIRGDLAVNALSNSTTAGQAVTVELFLTLQLVLCIFASTDERRGENPGTPALSIGFSVALGHLLGIHYTGCSMNPARSLAPAVVTGKFDDHWVFWIGPLVGAILGSLLYNYVLFPPAKSLSERLAVLKGLEPDTDWEEREVRRRQSVELHSPQSLPRGTKA
notes: Aquaporin 2, human, cDNA codon optimized for S. cerevisiae; primers run from the start codon to the last codon; also called AQP2-GFP; APQ2-GFP; not shown: TEV cleavage site, C-terminal, kept; yeGFP, C-terminal, kept; His10, C-terminal, kept

Target: the molecule itself
Assay: SDS-PAGE (SDS-resistant oligomers); peak fractions of Ni-affinity purified, detergent solubilised AQP-TEV-GFP-His10 fusions separated by SDS-PAGE; in-gel fluorescence and Coomassie staining

Binding result, binds:
B1, B2, B3
